# Reference: patent US20250188189A1 (published 2025)
# Where a chain is given by its changes, count along the chain named.
# T1: plasma-derived human activated protein C (APC) (UniProt P04070 43-461)
# T1 chain: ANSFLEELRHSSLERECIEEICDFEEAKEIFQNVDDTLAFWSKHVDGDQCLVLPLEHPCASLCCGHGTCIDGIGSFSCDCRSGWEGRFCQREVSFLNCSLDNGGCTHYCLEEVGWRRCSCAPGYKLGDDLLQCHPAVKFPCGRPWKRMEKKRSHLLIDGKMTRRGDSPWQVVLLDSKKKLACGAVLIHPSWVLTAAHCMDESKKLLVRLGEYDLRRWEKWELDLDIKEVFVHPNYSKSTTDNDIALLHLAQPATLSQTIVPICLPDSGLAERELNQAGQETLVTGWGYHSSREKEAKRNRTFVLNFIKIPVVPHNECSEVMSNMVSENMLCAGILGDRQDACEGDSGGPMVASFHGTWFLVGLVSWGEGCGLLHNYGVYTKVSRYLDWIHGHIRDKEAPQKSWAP
# B1: TPP-24727 (antibody, V domains shown)
# VH: EVQLVESGGGLVQPGGSLRLSCAASGFTFSNYYLNWVRQAPGKGLEWVGDIRLKSNNYEKHYAESVKGRFTISRDDSKNSLYLQMNSLKTEDTAVYYCAREGDYFDYWGQGTLVTVSS
# VL: DIVLTQSPASLAVSPGQRATITCKASESVDSFGATFMHWYQQKPGQPPKLLIYLASNLESGVPARFSGSGSGTDFTLTINPVEADDTANYYCQQNNEDPYTFGQGTKLEIKR
# B2: TPP-26934 (antibody, V domains shown)
# VH: B1 VH with L34I
# VL: EIVLTQSPGTLSLSPGERATLSCRASQSVSSFGATFMHWYQQKPGQPPKLLIYLASNRASGVPDRFSGSGSGTDFTLTINPVEADDTANYYCQQNNEDPYTFGQGTKLEIKR
# B3: TPP-26870 (antibody, V domains shown)
# VH: EVQLVESGGGLVQPGGSLRLSCAASGFTFSNYYMNWVRQAPGKGLEWVSYISSSSSTIYYADSVKGRFTISRDDSKNSLYLQMNSLKTEDTAVYYCAREGDYFDYWGQGTLVTVSS
# VL: B2 VL with T78K, N80S, P81R, D85E, T87V, A88G, N89V
# B4: TPP-24740 (antibody, V domains shown)
# VH: B1 VH with L34M, N35S
# B5: TPP-24744 (antibody, V domains shown)
# VH: B1 VH with L34I
# B6: TPP-24739 (antibody, V domains shown)
# VH: EVQLVESGGGLVQPGGSLRLSCAASGFTFSNYYMNWVRQAPGQGLEWMGRIIPILGIANYAQKFQGRFTISRDDSKNSLYLQMNSLKTEDTAVYYCAREGDYFDYWGQGTLVTVSS
# B7: TPP-24743 (antibody, V domains shown)
# VH: B6 VH with N35S
# B8: TPP-24777 (antibody, V domains shown)
# VH: B3 VH with N31S, M34L
# B9: TPP-24737 (antibody, V domains shown)
# VH: B3 VH
# B10: TPP-24745 (antibody, V domains shown)
# VH: B3 VH with M34I
# B11: TPP-24738 (antibody, V domains shown)
# VH: EVQLVESGGGLVQPGGSLRLSCAASGFTFSNYYMNWVRQAPGKGLEWVGRIKSKTDGGTTDYAAPVKGRFTISRDDSKNSLYLQMNSLKTEDTAVYYCAREGDYFDYWGQGTLVTVSS
# B12: TPP-24766 (antibody, V domains shown)
# VH: B11 VH with Y32A, N35S
# B13: TPP-24750 (antibody, V domains shown)
# VH: B11 VH with M34I, N35S
# B14: hAPC (enzyme)
# chain: T1 chain
# Molecular target: T1, plasma-derived human activated protein …
# Test: SPR
row,Kd,Binder
1,44.8 nM,B1

# Molecular target: T1, plasma-derived human activated protein …
# Test: SPR
# Remark: another data set of the same source
row,Kd,Binder
1,19.8 nM,B2
2,18.7 nM,B1
3,12.9 nM,B3

# Molecular target: T1, plasma-derived human activated protein …
# Test: SPR
# Remark: another data set of the same source
row,Kd,Binder
1,60.5 nM,B4
2,22.8 nM,B5
3,44.8 nM,B1
4,0.737 nM,B6
5,0.174 nM,B7
6,31.4 nM,B8
7,12.5 nM,B9
8,76.4 nM,B10
9,1.81 nM,B11
10,29700 nM,B12
11,13200 nM,B13

# Molecular target: TPP-29862
# Test: SPR; head prints nM; kd/ka gives M
row,Kd,Binder
1,11 nM,B14

# Molecular target: T1, plasma-derived human activated protein …
# Test: SPR; head prints nM; kd/ka gives M
row,Kd,Binder
1,40 nM,B3
